In publication doi:10.1101/2025.04.11.646618 one finds stoichiometry N data, which are given here for two substances.

The target of one assay is RPS4-HF (Arabidopsis) (UniProt Q9XGM3). The assay is described as follows: co-IP.
Another assay deals with YFP-RPS4 (Arabidopsis) (UniProt Q9XGM3). The assay is described as follows: co-IP.

On to RRS1-R-GFP (receptor), for which the stoichiometry N (usually a count of units in the complex or per binding partner) with RPS4-HF (Arabidopsis) came out at 1. On to RRS1-R-HF (receptor), for which the stoichiometry N with YFP-RPS4 (Arabidopsis) amounted to 1.
